Source: the supplement of paper PMC7877785
± gives the uncertainty stated by the source.

Experiment: self-splicing fitness, log relative to wild type (ln ratio); higher = more splicing; Tetrahymena group I intron in knt gene, E. coli kanamycin selection, DiMSum; sequences stand for … in CUCUCU…GGAGGGAAAAGUUAUCAGGCAUGCACCUGGUAGCUAGUCUUUAAACCAAUAGAUUGCAUCGGUUUAAAAGGCAAGACCGUCAAAUUGCGGGAAAGGGGUCAACAGCCGUUCAGUACCAAGUCUCAGGGGAAACUUUGAGAUGGCCUUGCAAAGGGUAUGGUAAUAAGCUGACGGACAUGGUCCUAACCACGCAGCCAAGUCCUAAGUCAACAGAUCUUCUGUUGAUAUGGAUGCAGUUCACAGACUAAAUGUCGGUCGGGGAAGAUGUAUUCUUCUCAUAAGAUAUAGUCGGACCUCUCCUUAAUGGGAGCUAGCGGAUGAAGUGAUGCAACACUGGAGCCGCUGGGAACUAAUUUGUAUGCGAAAGUAUAUUGAUUAGUUUUGGAGUACUCGUGGUCG
Summary of the method: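 Library with all eight P1ex-region intron nucleotides randomised, intron inside the knt kanamycin-resistance gene on pET-22b(+), in E. coli BL21(DE3). Cells grew overnight at 37°C or 30°C on LB agar with or without 25 μg/mL kanamycin (plus 100 μg/mL carbenicillin, 50 μM IPTG, 0.2% rhamnose), in six replicate transformations. Pooled colonies were amplicon-sequenced on Illumina HiSeq 2500. DiMSum fitness is the error-weighted combination of wild-type-normalised replicate fold changes, kanamycin versus none.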

Sequence | self-splicing fitness (ln) (30 °C) | self-splicing fitness (ln) (37 °C)
CAAGAGCAAUAUUACGUCCG | -1.66 ± 0.087 | -0.696 ± 0.13
CAAGAGCAAUAUUACGUGAU | -3.6 ± 0.21 | -2.34 ± 0.22
CAAGAGCAAUAUUACGUGGA | -3.87 ± 0.28 | -2.43 ± 0.15
CAAGAGCAAUAUUACGUUAC | -2.55 ± 0.12 | -2.71 ± 0.23
CAAUAGCAAUAUUACGAAGA | -3.96 ± 0.39 | -1.31 ± 0.2
CAAUAGCAAUAUUACGACGA | -2.18 ± 0.22 | -1.24 ± 0.14
CAAUAGCAAUAUUACGAGUA | -2.31 ± 0.21 | -2.38 ± 0.2
CAAUAGCAAUAUUACGAGUU | -3.64 ± 0.2 | -2.19 ± 0.2
CAAUAGCAAUAUUACGAUAG | -0.926 ± 0.069 | -0.00227 ± 0.1
CAAUAGCAAUAUUACGAUCC | -2.68 ± 0.46 | 
CAAUAGCAAUAUUACGCCUG | -0.752 ± 0.075 | 0.366 ± 0.088
CAAUAGCAAUAUUACGCGGG | -3.11 ± 0.16 | -1.75 ± 0.12
CAAUAGCAAUAUUACGCGUC | -4.09 ± 0.25 | -3 ± 0.22
CAAUAGCAAUAUUACGCUUU | -4.34 ± 0.27 | -2.2 ± 0.19
CAAUAGCAAUAUUACGGUCC | -3.21 ± 0.38 | -2.34 ± 0.39
CAAUAGCAAUAUUACGGUUA | -1.4 ± 0.12 | -1.24 ± 0.1
CAAUAGCAAUAUUACGUAUU | -3.25 ± 0.21 | -2.65 ± 0.18
CAAUAGCAAUAUUACGUCAU | -3.6 ± 0.14 | -2.88 ± 0.17
CAAUAGCAAUAUUACGUCGU | -3.95 ± 0.23 | -2.49 ± 0.19
CAAUAGCAAUAUUACGUGGU | -3.82 ± 0.17 | -2.53 ± 0.18
CACAAGCAAUAUUACGAACA | -2.61 ± 0.18 | -1.72 ± 0.12
CACAAGCAAUAUUACGAGCU | -3.48 ± 0.24 | -3.29 ± 0.3
CACAAGCAAUAUUACGAGGG | -2.28 ± 0.12 | -2.48 ± 0.14
CACAAGCAAUAUUACGAUUU | -4.17 ± 0.18 | -2.56 ± 0.15

Sequence | self-splicing fitness (ln) (30 °C) | self-splicing fitness (ln) (37 °C)
CACAAGCAAUAUUACGCACU | -2.4 ± 0.13 | -1.33 ± 0.11
CACAAGCAAUAUUACGCAGG | -2.65 ± 0.15 | -1.01 ± 0.13
CACAAGCAAUAUUACGCAGU | -3.4 ± 0.2 | -2.37 ± 0.16
CACAAGCAAUAUUACGCAUC | -3.19 ± 0.18 | -2.29 ± 0.18
CACAAGCAAUAUUACGCAUU | -2.9 ± 0.096 | -2.5 ± 0.14
CACAAGCAAUAUUACGCGCG | -0.772 ± 0.066 | -0.607 ± 0.071
CACAAGCAAUAUUACGCUAA | -2.58 ± 0.18 | -1.82 ± 0.16
CACAAGCAAUAUUACGCUCC | -1.93 ± 0.16 | -1.66 ± 0.22
CACAAGCAAUAUUACGGGAA | -3.21 ± 0.16 | -2.79 ± 0.17
CACAAGCAAUAUUACGUAAG | -0.372 ± 0.047 | 0.157 ± 0.065
CACAAGCAAUAUUACGUAGA | -1.83 ± 0.081 | -1.73 ± 0.11
CACAAGCAAUAUUACGUGGG | -3.94 ± 0.16 | -2.42 ± 0.12
CACAAGCAAUAUUACGUGGU | -4.1 ± 0.17 | -2.66 ± 0.19
CACAAGCAAUAUUACGUUCG | -0.461 ± 0.048 | 0.012 ± 0.06
CACAAGCAAUAUUACGUUGC | -3.28 ± 0.1 | -2.66 ± 0.13
CACCAGCAAUAUUACGAACA | -3.14 ± 0.17 | -0.953 ± 0.14
CACCAGCAAUAUUACGACAA | -2.61 ± 0.23 | -2.73 ± 0.2
CACCAGCAAUAUUACGACUU | -3.4 ± 0.14 | -2.69 ± 0.13
CACCAGCAAUAUUACGAGCC | -3.37 ± 0.27 | -2.92 ± 0.32
CACCAGCAAUAUUACGAGUA | -1.04 ± 0.06 | -0.515 ± 0.066
CACCAGCAAUAUUACGAUAG | -0.377 ± 0.057 | 0.0494 ± 0.064
CACCAGCAAUAUUACGAUGU | -3.07 ± 0.12 | -0.91 ± 0.085
CACCAGCAAUAUUACGCACG | -0.655 ± 0.045 | 0.0962 ± 0.062
CACCAGCAAUAUUACGCCAC | -3.58 ± 0.16 | -2.42 ± 0.17

Sequence | self-splicing fitness (ln) (30 °C) | self-splicing fitness (ln) (37 °C)
CACCAGCAAUAUUACGCCUA | -2.37 ± 0.16 | -1.52 ± 0.17
CACCAGCAAUAUUACGCUCA | -1.42 ± 0.12 | -1.13 ± 0.17
CACCAGCAAUAUUACGGAAA | -1.63 ± 0.1 | -2.03 ± 0.14
CACCAGCAAUAUUACGGACA | -2.01 ± 0.1 | -0.603 ± 0.086
CACCAGCAAUAUUACGGCCU | -2.6 ± 0.16 | -1.93 ± 0.16
CACCAGCAAUAUUACGGCUC | -1.44 ± 0.075 | -0.828 ± 0.087
CACCAGCAAUAUUACGGGAG | -2.61 ± 0.067 | -1.26 ± 0.076
CACCAGCAAUAUUACGGGCA | -1.29 ± 0.069 | -0.343 ± 0.081
CACCAGCAAUAUUACGGGUA | -0.28 ± 0.045 | -0.404 ± 0.055
CACCAGCAAUAUUACGGGUC | -2.54 ± 0.07 | -2.17 ± 0.092
CACCAGCAAUAUUACGGUGU | -3.39 ± 0.11 | -1.82 ± 0.12
CACCAGCAAUAUUACGUAAC | -2.87 ± 0.13 | -0.914 ± 0.14
CACCAGCAAUAUUACGUGAC | -4.86 ± 0.26 | -2.34 ± 0.21
CACCAGCAAUAUUACGUGUG | -4.45 ± 0.17 | -3.63 ± 0.19
CACCAGCAAUAUUACGUUAC | -4.48 ± 0.26 | -2.45 ± 0.18
CACGAGCAAUAUUACGAGCG | -0.857 ± 0.086 | -1.33 ± 0.1
CACGAGCAAUAUUACGAGGG | -3.64 ± 0.25 | -3.25 ± 0.33
CACGAGCAAUAUUACGAUAC | -3.07 ± 0.24 | -2.73 ± 0.36
CACGAGCAAUAUUACGAUGU | -3.52 ± 0.18 | -3.49 ± 0.24
CACGAGCAAUAUUACGAUUA | -3.34 ± 0.31 | -2.12 ± 0.25
CACGAGCAAUAUUACGAUUG | -2.19 ± 0.11 | -1.6 ± 0.13
CACGAGCAAUAUUACGAUUU | -3.18 ± 0.18 | -1.99 ± 0.13
CACGAGCAAUAUUACGCAUA | -3.1 ± 0.15 | -2.61 ± 0.18
CACGAGCAAUAUUACGCGGU | -3.13 ± 0.15 | -3.5 ± 0.24

Sequence | self-splicing fitness (ln) (30 °C) | self-splicing fitness (ln) (37 °C)
CACGAGCAAUAUUACGCUUA | -2.83 ± 0.32 | -0.611 ± 0.12
CACGAGCAAUAUUACGGCCC | -3.09 ± 0.28 | -2.95 ± 0.36
CACGAGCAAUAUUACGGCCG | -0.354 ± 0.094 | -0.105 ± 0.13
CACGAGCAAUAUUACGGCGA | -3.28 ± 0.19 | -2.69 ± 0.26
CACGAGCAAUAUUACGGCUG | -1.39 ± 0.089 | -0.237 ± 0.11
CACGAGCAAUAUUACGGGAC | -3.36 ± 0.2 | -2.55 ± 0.23
CACGAGCAAUAUUACGGGUU | -3.2 ± 0.16 | -2.81 ± 0.22
CACGAGCAAUAUUACGUAGG |  | -1.83 ± 0.21
CACGAGCAAUAUUACGUCGA | -2.23 ± 0.35 | -2.81 ± 0.26
CACGAGCAAUAUUACGUGAU | -3.91 ± 0.14 | -2.05 ± 0.14
CACUAGCAAUAUUACGAAGC |  | -2.83 ± 0.35
CACUAGCAAUAUUACGACAG | -0.114 ± 0.076 | 0.0358 ± 0.079
CACUAGCAAUAUUACGAGGG | -3.29 ± 0.18 | -1.34 ± 0.15
CACUAGCAAUAUUACGCAAC |  | -2.5 ± 0.29
CACUAGCAAUAUUACGCAGG | -3.27 ± 0.12 | -1.26 ± 0.15
CACUAGCAAUAUUACGCGCU | -3.62 ± 0.16 | -2.09 ± 0.14
CACUAGCAAUAUUACGCGGC | -3.47 ± 0.28 | -2.97 ± 0.25
CACUAGCAAUAUUACGGCUG | -0.972 ± 0.054 | 0.114 ± 0.065
CACUAGCAAUAUUACGGGCG | -0.464 ± 0.087 | -0.0972 ± 0.084
CACUAGCAAUAUUACGGGUC | -2.36 ± 0.14 | -2.27 ± 0.2
CACUAGCAAUAUUACGGUCU | -1.55 ± 0.078 | -0.782 ± 0.11
CACUAGCAAUAUUACGUAAA | -3.48 ± 0.18 | -2.61 ± 0.2
CACUAGCAAUAUUACGUAAC | -3.68 ± 0.27 | -1.88 ± 0.24
CACUAGCAAUAUUACGUAUA | -3.17 ± 0.36 | -1.5 ± 0.23
